Experimental data: patent publication US6506379

Assays:
[1] = biological target: His6-flag-FKBP, no drug added (ethanol alone) (human); assay: phage display affinity enrichment: FRAP(2015-2114) phagemids mixed with pBC control phagemids, 1 uM His6-flag-FKBP with ethanol alone, capture on Ni-NTA agarose, acid elution
[2] = biological target: His6-flag-FKBP in complex with FK506 (human); assay: phage display affinity enrichment: FRAP(2015-2114) phagemids mixed with pBC control phagemids, 1 uM His6-flag-FKBP plus about 1 uM FK506, capture on Ni-NTA agarose, acid elution
[3] = biological target: His6-flag-FKBP in complex with rapamycin (human); assay: phage display affinity enrichment: FRAP(2015-2114) phagemids mixed with pBC control phagemids, 1 uM His6-flag-FKBP plus about 1 uM rapamycin, capture on Ni-NTA agarose, acid elution
[4] = biological target: 1FRB-p65(361-550) (human) (UniProt P42345); assay: cell-based or functional assay
Sequence of 1FRB-p65(361-550) (human) (P42345 other isoform, or with tags, fused parts or gaps): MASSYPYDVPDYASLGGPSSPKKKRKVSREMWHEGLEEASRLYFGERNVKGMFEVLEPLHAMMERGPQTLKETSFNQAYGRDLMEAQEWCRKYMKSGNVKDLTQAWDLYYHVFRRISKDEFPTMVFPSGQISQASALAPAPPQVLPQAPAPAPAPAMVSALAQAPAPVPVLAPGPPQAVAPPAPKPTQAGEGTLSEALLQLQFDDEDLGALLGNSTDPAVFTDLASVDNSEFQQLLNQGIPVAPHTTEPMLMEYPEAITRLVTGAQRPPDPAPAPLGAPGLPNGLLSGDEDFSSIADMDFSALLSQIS

Sequence of His6-flag-FKBP in complex with rapamycin (human) (chain, as listed by the source limits assumed): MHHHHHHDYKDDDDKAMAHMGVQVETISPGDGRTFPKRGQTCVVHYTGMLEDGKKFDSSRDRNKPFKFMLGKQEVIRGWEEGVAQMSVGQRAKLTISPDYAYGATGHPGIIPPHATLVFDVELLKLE
Sequence of His6-flag-FKBP, no drug added (ethanol alone) (human) (chain, as listed by the source limits assumed): as above
Sequence of His6-flag-FKBP in complex with FK506 (human) (chain, as listed by the source limits assumed): as above

FRAP (amino acids 2015-2114) displayed on filamentous phagemid particles, from p-CANTAB-AP-FRAP(2015-2114) (from UniProt P03661 215-424)
fold enrichment of FRAP phage compared to the starting mixture (carb/chlor cfu ratio) [1]: 1.5 fold
fold enrichment of FRAP phage compared to the starting mixture (carb/chlor cfu ratio) [2]: 2.4 fold
fold enrichment of FRAP phage compared to the starting mixture (carb/chlor cfu ratio) [3]: 271 fold

ZFHD1-3FKBP in complex with rapamycin (from UniProt P62942 1-107)
SEAP activity of the stable clone at 100 nM rapamycin, extended assay (mock transfected cells 47 units) (arbitrary fluorescence units) [4]: > 90000
SEAP secretion, transiently transfected HT1080 cells (ZFHD1-site SEAP reporter); lowest rapamycin concentration with detectable SEAP [4]: 0.5 nM
SEAP secretion, transiently transfected HT1080 cells; rapamycin concentration at peak SEAP [4]: 5 nM

ZFHD1-3FKBP, no drug (from UniProt P62942 1-107)
SEAP activity of the stable clone without rapamycin, extended assay (mock transfected cells 47 units) (arbitrary fluorescence units) [4]: 54
